B1: Glutamate dehydrogenase, P96110 (parent)
chain: MPEKSLYEMAVEQFNRAASLMDLESDLAEVLRRPKRVLIVEFPVRMDDGHVEVFTGYRVQHNVARGPAKGGIRYHPDVTLDEVKALAFWMTWKTAVMNLPFGGGKGGVRVDPKKLSRNELERLSRRFFSEIQVIIGPYNDIPAPDVNTNADVMAWYMDTYSMNVGHTVLGIVTGKPVELGGSKGREEATGRGVKVCAGLAMDVLGIDPKKATVAVQGFGNVGQFAALLISQELGSKVVAVSDSRGGIYNPEGFDVEELIRYKKEHGTVVTYPKGERITNEELLELDVDILVPAALEGAIHAGNAERIKAKAVVEGANGPTTPEADEILSRRGILVVPDILANAGGVTVSYFEWVQDLQSFFWDLDQVRNALEKMMKGAFNDVMKVKEKYNVDMRTAAYILAIDRVAYATKKRGIYP

Variants of: B1
Conditions: Thermotoga maritima (strain ATCC 43589 / DSM 3109 / JCM 10099 / NBRC 100826 / MSB8), pH 7, CD, sodium phosphate 20 mM, reversible: yes, structure 1B26, whole UniProt chain shown

Variant | ddG of mutation (higher = less stable) (20 °C, GdnHCl) [kcal/mol] | denaturant m value (20 °C, GdnHCl) [kcal/mol/M] | denaturant midpoint (higher = more stable) (20 °C, GdnHCl) [M] | unfolding free energy (20 °C, GdnHCl) [kcal/mol] | ddG of mutation (higher = less stable) (20 °C, Urea) [kcal/mol] | denaturant m value (20 °C, Urea) [kcal/mol/M] | denaturant midpoint (higher = more stable) (20 °C, Urea) [M] | unfolding free energy (20 °C, Urea) [kcal/mol] | Tm (Thermal) [°C] | change of melting temperature, mutant - wild type (higher = more stable) (Thermal) [°C] | unfolding enthalpy (van 't Hoff) (Thermal) [kcal/mol] | ddG of mutation (higher = less stable) (69.5 °C, Thermal) [kcal/mol]
MPEKSLYEMAVEQFNRAASLMDLESDLAEVLRRPKRVLIVEFPVRMDDGHVEVFTGYRVQHNVARGPAKGGIRYHPDVTLDEVKALAFWMTWKTAVMNLPFGGGKGGVRVDPKKLSRNELERLSRRFFSEIQVIIGPYNDIPAPDVNTNADVMAWYMDTYSMNVGHTVLGIVTGKPVELGGSKGREEATGRGVAVCAGLAMDVLGIDPKKATVAVQGFGNVGQFAALLISQALGSKVVAVSDSRGGIYNPEGFDVEELIRYKKEHGTVVTYPKGERITNEELLELDVDILVPAALEGAIHAGNAERIKAKAVVEGANGPTTPEADEILSRRGILVVPDILANAGGVTVSYFEWVQDLQSFFWDLDQVRNALEKMMKGAFNDVMKVKEKYNVDMRTAAYILAIDRVAYATKKRGIYP [K194A E232A] | -0.92 | 2.73 | 2.04 | 6.04 | -0.51 | 1.42 | 3.67 | 5.36 | 71.2 | 1.7 | 52.7 | 
MPEKSLYEMAVEQFNRAASLMDLESDLAEVLRRPKRVLIVEFPVRMDDGHVEVFTGYRVQHNVARGPAKGGIRYHPDVTLDEVKALAFWMTWKTAVMNLPFGGGKGGVRVDPKKLSRNELERLSRRFFSEIQVIIGPYNDIPAPDVNTNADVMAWYMDTYSMNVGHTVLGIVTGKPVELGGSKGREEATGRGVKVCAGLAMDVLGIDPKKATVAVQGFGNVGQFAALLISQALGSKVVAVSDSRGGIYNPEGFDVEELIRYKKEHGTVVTYPKGERITNEELLELDVDILVPAALEGAIHAGNAERIKAKAVVEGANGPTTPEADEILSRRGILVVPDILANAGGVTVSYFEWVQDLQSFFWDLDQVRNALEKMMKGAFNDVMKVKEKYNVDMRTAAYILAIDRVAYATKKRGIYP [E232A] | 0.95 | 3 | 1.41 | 4.17 | 0.35 | 1.6 | 3.08 | 4.5 | 68.4 | -1.1 | 41 | 0.17
MPEKSLYEMAVEQFNRAASLMDLESDLAEVLRRPKRVLIVEFPVRMDDGHVEVFTGYRVQHNVARGPAKGGIRYHPDVTLDEVKALAFWMTWKTAVMNLPFGGGKGGVRVDPKKLSRNELERLSRRFFSEIQVIIGPYNDIPAPDVNTNADVMAWYMDTYSMNVGHTVLGIVTGKPVELGGSKGREEATGAGVAVCAGLAMDVLGIDPKKATVAVQGFGNVGQFAALLISQELGSKVVAVSDSRGGIYNPEGFDVEELIRYKKEHGTVVTYPKGERITNEELLELDVDILVPAALEGAIHAGNAERIKAKAVVEGANGPTTPEADEILSRRGILVVPDILANAGGVTVSYFEWVQDLQSFFWDLDQVRNALEKMMKGAFNDVMKVKEKYNVDMRTAAYILAIDRVAYATKKRGIYP [R191A K194A] |  |  |  |  | 0.16 | 1.33 | 3.21 | 4.69 | 67.5 | -2 | 53.2 | 
